Test results from the supplement of paper PMC11908140.

B1: library; numbered along this chain (parent)
chain: MRKPRAAVGSGHRKQAASQEGRQKHAKNNSQAKPSACDGLARQPEEVVLQASVSSYHLFRDVAEVTAFRGSLLSWYDQEKRDLPWRRRAEDEMDLDRRAYAVWVSEVMLQQTQVATVINYYTGWMQKWPTLQDLASASLEEVNQLWAGLGYYSRGRRLQEGARKVVEELGGHMPRTAETLQQLLPGVGRYTAGAIASIAFGQATGVVDGNVARVLCRVRAIGADPSSTLVSQQLWGLAQQLVDPARPGDFNQAAMELGATVCTPQRPLCSQCPVESLCRARQRVEQEQLLASGSLSGSPDVEECAPNTGQCHLCLPPSEPWDQTLGVVNFPRKASRKPPREESSATCVLEQPGALGAQILLVQRPNSGLLAGLWEFPSVTWEPSEQLQRKALLQELQRWAGPLPATHLRHLGEVVHTFSHIKLTYQVYGLALEGQTPVTTVPPGARWLTQEEFHTAAVSTAMKKVFRVYQGQQPGTCMGSKRSQVSSPCSRKKPRMGQQVLDNFFRSHISTDAHSLNSAAQ

Variants of: B1
Experiment: 8OG:A repair function score (normalized; synonymous = 0, nonsense = -1) (normalized log-likelihood score); higher = more repair activity (WT-like)
Conditions: with 8OG:A DNA repair reporter (GFP) in HEK-293 MUTYH KO cells
Method: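 Saturation mutagenesis (NNN codon scan) of the MUTYH cDNA (521-aa nuclear isoform NM_001048174.1 / NP_001041639), stably expressed under doxycycline induction in HEK-293 MUTYH knockout cells. Cells were co-transfected with an 8OG:A-bearing GFP repair reporter plus mCherry and sorted 72 h later into GFP+ and GFP− bins, three replicates per tile. The Rosace log2 enrichment (GFP+ vs GFP−) was converted per tile to a normalized function score with synonymous variants centered at 0 and nonsense variants (codons 1-471) at -1; low-abundance variants were removed.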

Variant | 8OG:A repair function score
MRKPRAAVGSGHRKQAASQEGRQKHAKNNSQAKPSACDGLARQPEEVVLQASVSSYHLFRDVAEVTAFRGSLLSWYDQEKRDLPWRRRAEDEMDLDRRAYAVWVSEVMLQQTQVATVINYYTGWMQKWPTLQDLASAFLEEVNQLWAGLGYYSRGRRLQEGARKVVEELGGHMPRTAETLQQLLPGVGRYTAGAIASIAFGQATGVVDGNVARVLCRVRAIGADPSSTLVSQQLWGLAQQLVDPARPGDFNQAAMELGATVCTPQRPLCSQCPVESLCRARQRVEQEQLLASGSLSGSPDVEECAPNTGQCHLCLPPSEPWDQTLGVVNFPRKASRKPPREESSATCVLEQPGALGAQILLVQRPNSGLLAGLWEFPSVTWEPSEQLQRKALLQELQRWAGPLPATHLRHLGEVVHTFSHIKLTYQVYGLALEGQTPVTTVPPGARWLTQEEFHTAAVSTAMKKVFRVYQGQQPGTCMGSKRSQVSSPCSRKKPRMGQQVLDNFFRSHISTDAHSLNSAAQ [S138F] | -0.378
MRKPRAAVGSGHRKQAASQEGRQKHAKNNSQAKPSACDGLARQPEEVVLQASVSSYHLFRDVAEVTAFRGSLLSWYDQEKRDLPWRRRAEDEMDLDRRAYAVWVSEVMLQQTQVATVINYYTGWMQKWPTLQDLASAHLEEVNQLWAGLGYYSRGRRLQEGARKVVEELGGHMPRTAETLQQLLPGVGRYTAGAIASIAFGQATGVVDGNVARVLCRVRAIGADPSSTLVSQQLWGLAQQLVDPARPGDFNQAAMELGATVCTPQRPLCSQCPVESLCRARQRVEQEQLLASGSLSGSPDVEECAPNTGQCHLCLPPSEPWDQTLGVVNFPRKASRKPPREESSATCVLEQPGALGAQILLVQRPNSGLLAGLWEFPSVTWEPSEQLQRKALLQELQRWAGPLPATHLRHLGEVVHTFSHIKLTYQVYGLALEGQTPVTTVPPGARWLTQEEFHTAAVSTAMKKVFRVYQGQQPGTCMGSKRSQVSSPCSRKKPRMGQQVLDNFFRSHISTDAHSLNSAAQ [S138H] | 0.0365
MRKPRAAVGSGHRKQAASQEGRQKHAKNNSQAKPSACDGLARQPEEVVLQASVSSYHLFRDVAEVTAFRGSLLSWYDQEKRDLPWRRRAEDEMDLDRRAYAVWVSEVMLQQTQVATVINYYTGWMQKWPTLQDLASADLEEVNQLWAGLGYYSRGRRLQEGARKVVEELGGHMPRTAETLQQLLPGVGRYTAGAIASIAFGQATGVVDGNVARVLCRVRAIGADPSSTLVSQQLWGLAQQLVDPARPGDFNQAAMELGATVCTPQRPLCSQCPVESLCRARQRVEQEQLLASGSLSGSPDVEECAPNTGQCHLCLPPSEPWDQTLGVVNFPRKASRKPPREESSATCVLEQPGALGAQILLVQRPNSGLLAGLWEFPSVTWEPSEQLQRKALLQELQRWAGPLPATHLRHLGEVVHTFSHIKLTYQVYGLALEGQTPVTTVPPGARWLTQEEFHTAAVSTAMKKVFRVYQGQQPGTCMGSKRSQVSSPCSRKKPRMGQQVLDNFFRSHISTDAHSLNSAAQ [S138D] | -0.192
MRKPRAAVGSGHRKQAASQEGRQKHAKNNSQAKPSACDGLARQPEEVVLQASVSSYHLFRDVAEVTAFRGSLLSWYDQEKRDLPWRRRAEDEMDLDRRAYAVWVSEVMLQQTQVATVINYYTGWMQKWPTLQDLASAILEEVNQLWAGLGYYSRGRRLQEGARKVVEELGGHMPRTAETLQQLLPGVGRYTAGAIASIAFGQATGVVDGNVARVLCRVRAIGADPSSTLVSQQLWGLAQQLVDPARPGDFNQAAMELGATVCTPQRPLCSQCPVESLCRARQRVEQEQLLASGSLSGSPDVEECAPNTGQCHLCLPPSEPWDQTLGVVNFPRKASRKPPREESSATCVLEQPGALGAQILLVQRPNSGLLAGLWEFPSVTWEPSEQLQRKALLQELQRWAGPLPATHLRHLGEVVHTFSHIKLTYQVYGLALEGQTPVTTVPPGARWLTQEEFHTAAVSTAMKKVFRVYQGQQPGTCMGSKRSQVSSPCSRKKPRMGQQVLDNFFRSHISTDAHSLNSAAQ [S138I] | -0.286
MRKPRAAVGSGHRKQAASQEGRQKHAKNNSQAKPSACDGLARQPEEVVLQASVSSYHLFRDVAEVTAFRGSLLSWYDQEKRDLPWRRRAEDEMDLDRRAYAVWVSEVMLQQTQVATVINYYTGWMQKWPTLQDLASAELEEVNQLWAGLGYYSRGRRLQEGARKVVEELGGHMPRTAETLQQLLPGVGRYTAGAIASIAFGQATGVVDGNVARVLCRVRAIGADPSSTLVSQQLWGLAQQLVDPARPGDFNQAAMELGATVCTPQRPLCSQCPVESLCRARQRVEQEQLLASGSLSGSPDVEECAPNTGQCHLCLPPSEPWDQTLGVVNFPRKASRKPPREESSATCVLEQPGALGAQILLVQRPNSGLLAGLWEFPSVTWEPSEQLQRKALLQELQRWAGPLPATHLRHLGEVVHTFSHIKLTYQVYGLALEGQTPVTTVPPGARWLTQEEFHTAAVSTAMKKVFRVYQGQQPGTCMGSKRSQVSSPCSRKKPRMGQQVLDNFFRSHISTDAHSLNSAAQ [S138E] | -0.00767
MRKPRAAVGSGHRKQAASQEGRQKHAKNNSQAKPSACDGLARQPEEVVLQASVSSYHLFRDVAEVTAFRGSLLSWYDQEKRDLPWRRRAEDEMDLDRRAYAVWVSEVMLQQTQVATVINYYTGWMQKWPTLQDLASAGLEEVNQLWAGLGYYSRGRRLQEGARKVVEELGGHMPRTAETLQQLLPGVGRYTAGAIASIAFGQATGVVDGNVARVLCRVRAIGADPSSTLVSQQLWGLAQQLVDPARPGDFNQAAMELGATVCTPQRPLCSQCPVESLCRARQRVEQEQLLASGSLSGSPDVEECAPNTGQCHLCLPPSEPWDQTLGVVNFPRKASRKPPREESSATCVLEQPGALGAQILLVQRPNSGLLAGLWEFPSVTWEPSEQLQRKALLQELQRWAGPLPATHLRHLGEVVHTFSHIKLTYQVYGLALEGQTPVTTVPPGARWLTQEEFHTAAVSTAMKKVFRVYQGQQPGTCMGSKRSQVSSPCSRKKPRMGQQVLDNFFRSHISTDAHSLNSAAQ [S138G] | 0.0657
